Experimental data taken from PMC10540051.

Target: purified extracellular moiety of SorCS1 (UniProt Q8WY21)
Assay: SPR; BIAcore 3000, CM5 chip; extracellular moiety of SorCS1 immobilised at about 50 fmol/mm^2; mature BDNF (50–200 nM) injected at 5 μl/min in 10 mM Hepes, 150 mM NaCl, 1.5 mM CaCl2, 1 mM EGTA, 0.005% Tween-20, pH 7.4; Langmuir 1:1 model

Sequence of UniProt Q8WY21 (Q8WY21 34-1099): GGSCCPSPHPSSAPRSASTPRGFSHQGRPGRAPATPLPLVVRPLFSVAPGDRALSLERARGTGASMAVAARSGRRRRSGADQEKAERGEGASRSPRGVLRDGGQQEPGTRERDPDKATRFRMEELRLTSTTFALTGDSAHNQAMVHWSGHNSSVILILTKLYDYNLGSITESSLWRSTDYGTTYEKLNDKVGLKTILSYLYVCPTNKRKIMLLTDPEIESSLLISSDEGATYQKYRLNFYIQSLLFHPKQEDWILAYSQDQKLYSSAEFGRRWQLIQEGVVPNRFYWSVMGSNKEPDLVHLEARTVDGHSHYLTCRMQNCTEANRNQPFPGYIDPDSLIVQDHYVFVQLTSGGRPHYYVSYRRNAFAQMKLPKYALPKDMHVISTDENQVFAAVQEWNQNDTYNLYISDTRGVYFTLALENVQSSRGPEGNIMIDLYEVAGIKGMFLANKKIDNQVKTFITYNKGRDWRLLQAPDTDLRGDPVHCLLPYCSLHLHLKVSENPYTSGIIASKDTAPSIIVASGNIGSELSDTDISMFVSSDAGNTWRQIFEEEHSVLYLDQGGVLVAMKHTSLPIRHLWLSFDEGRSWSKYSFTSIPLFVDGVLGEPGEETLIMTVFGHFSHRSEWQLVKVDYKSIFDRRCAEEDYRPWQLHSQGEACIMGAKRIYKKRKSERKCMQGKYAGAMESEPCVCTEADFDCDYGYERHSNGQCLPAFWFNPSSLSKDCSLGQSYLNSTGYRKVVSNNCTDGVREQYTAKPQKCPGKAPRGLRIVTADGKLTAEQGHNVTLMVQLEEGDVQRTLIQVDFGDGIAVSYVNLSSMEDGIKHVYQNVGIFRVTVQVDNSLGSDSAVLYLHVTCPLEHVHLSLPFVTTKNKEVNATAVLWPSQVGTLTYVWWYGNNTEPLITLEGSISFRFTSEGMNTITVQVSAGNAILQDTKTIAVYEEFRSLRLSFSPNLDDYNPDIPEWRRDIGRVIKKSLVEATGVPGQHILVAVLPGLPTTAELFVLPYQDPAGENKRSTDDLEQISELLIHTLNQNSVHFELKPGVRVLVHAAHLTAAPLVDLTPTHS

Substance: mature BDNF (ligand)
- Kd: 60 nM
